Here are results for two substances from patent US20160263137A1.

For assay [1], the target named is death receptor (DR) on the plasma membrane of MDA-MB-231 cells. In words: cell-based or functional assay.
For assay [2] the target is unchanged. Nature of the assay: fluorescence of cell-associated r-TRAIL on MDA-MB-231 cells, 4 C (membrane only) against 37 C (membrane plus internalised), r-TRAIL-Gelipo 0.2 ug/mL after HAase treatment.

With “His-ILZ-TRAIL (residues 114-281) (from UniProt P50591 114-281) (ligand)”, in assay [1], the apoptosis ratio, Annexin V-FITC/PI flow cytometry, MDA-MB-231 cells, 12 h, free TRAIL 2 ng/mL was 36.5%; the apoptosis ratio, Annexin V-FITC/PI flow cytometry, MDA-MB-231 cells, 12 h, free TRAIL 20 ng/mL came out at 51.7%; the viability, Annexin V-FITC/PI flow cytometry, MDA-MB-231 cells, 12 h, free TRAIL 20 ng/mL amounted to 32.3%.
In the case of “rhodamine-labeled TRAIL (His-ILZ-TRAIL, residues 114-281, labelled with rhodamine NHS ester) (from UniProt P50591 114-281) (ligand)”, the percent of r-TRAIL bound onto the membrane in assay [2] came out at 80%.
